Measured values as given in US20030219446A1.
Each block holds one substance with its values, some of them ahead of it.

Tests used:
CD28 receptor (human) [1] = target: CD28 receptor (human) (UniProt P10747); test: cell-based or functional assay
[2] = target: CD28Ig fusion protein (human) (UniProt P10747); test: plate binding assay, ^125I-B7Ig (24 nM) on immobilized CD28Ig
[3] = target: CD28Ig fusion protein (human) (UniProt P10747); test: competition of ^125I-B7Ig binding to immobilized CD28Ig by unlabeled B7Ig
[4] = target: CD28Ig fusion protein (human) (UniProt P10747); test: competition of ^125I-B7Ig binding to immobilized CD28Ig
CD28 receptor (human) [5] = target: CD28 receptor (human) (UniProt P10747); test: flow cytometry, FITC-conjugated mAb 9.3 on CD28^+ CHO cells
CD28 receptor (human) [6] = target: CD28 receptor (human) (UniProt P10747); test: flow cytometry, FITC-conjugated mAb 9.3 on phytohemagglutinin-stimulated T cells
[7] = target: CD28Ig fusion protein (human) (UniProt P10747); test: competition of ^125I-B7Ig binding to immobilized CD28Ig by the unlabeled competitor
B7 antigen (human) [8] = target: B7 antigen (human) (UniProt P33681); test: cell-based or functional assay
B7 antigen (human) [9] = target: B7 antigen (human) (UniProt P33681); test: flow cytometry, 5E1 cells; -cold minus +cold
B7 antigen (human) [10] = target: B7 antigen (human) (UniProt P33681); test: flow cytometry, T51 cells; -cold minus +cold
B7 antigen (human) [11] = target: B7 antigen (human) (UniProt P33681); test: flow cytometry, Raji cells; -cold minus +cold
B7 antigen (human) [12] = target: B7 antigen (human) (UniProt P33681); test: flow cytometry, Daudi cells; -cold minus +cold
B7 antigen (human) [13] = target: B7 antigen (human) (UniProt P33681); test: flow cytometry, Jijoye cells; -cold minus +cold
B7 antigen (human) [14] = target: B7 antigen (human) (UniProt P33681); test: flow cytometry, 5E1 cells preincubated with unlabeled BB-1
B7 antigen (human) [15] = target: B7 antigen (human) (UniProt P33681); test: flow cytometry, T51 cells preincubated with unlabeled BB-1
B7 antigen (human) [16] = target: B7 antigen (human) (UniProt P33681); test: flow cytometry, Raji cells preincubated with unlabeled BB-1
B7 antigen (human) [17] = target: B7 antigen (human) (UniProt P33681); test: flow cytometry, Daudi cells preincubated with unlabeled BB-1
B7 antigen (human) [18] = target: B7 antigen (human) (UniProt P33681); test: flow cytometry, Jijoye cells preincubated with unlabeled BB-1
B7 antigen (human) [19] = target: B7 antigen (human) (UniProt P33681); test: flow cytometry, direct staining of 5E1 cells (positive for CD28 adhesion)
B7 antigen (human) [20] = target: B7 antigen (human) (UniProt P33681); test: flow cytometry, direct staining of T51 cells (positive for CD28 adhesion)
B7 antigen (human) [21] = target: B7 antigen (human) (UniProt P33681); test: flow cytometry, direct staining of Raji cells (positive for CD28 adhesion)
B7 antigen (human) [22] = target: B7 antigen (human) (UniProt P33681); test: flow cytometry, direct staining of Daudi cells (positive for CD28 adhesion)
B7 antigen (human) [23] = target: B7 antigen (human) (UniProt P33681); test: flow cytometry, direct staining of Jijoye cells (positive for CD28 adhesion)
B7 antigen (human) [24] = target: B7 antigen (human) (UniProt P33681); test: flow cytometry, Namalwa cells (negative for CD28 adhesion); -cold minus +cold
[25] = target: B7Ig fusion protein (human) (UniProt P33681); test: competition of ^125I-B7Ig binding to immobilized CD28Ig by the unlabeled competitor
B7 antigen (human) [26] = target: B7 antigen (human) (UniProt P33681); test: flow cytometry, 1A2 cells preincubated with unlabeled BB-1 (negative for CD28 adhesion)
B7 antigen (human) [27] = target: B7 antigen (human) (UniProt P33681); test: flow cytometry, CEM cells preincubated with unlabeled BB-1 (negative for CD28 adhesion)
B7 antigen (human) [28] = target: B7 antigen (human) (UniProt P33681); test: flow cytometry, HL60 cells preincubated with unlabeled BB-1 (negative for CD28 adhesion)
B7 antigen (human) [29] = target: B7 antigen (human) (UniProt P33681); test: flow cytometry, HSB2 cells preincubated with unlabeled BB-1 (negative for CD28 adhesion)
B7 antigen (human) [30] = target: B7 antigen (human) (UniProt P33681); test: flow cytometry, THP-1 cells preincubated with unlabeled BB-1 (negative for CD28 adhesion)
B7 antigen (human) [31] = target: B7 antigen (human) (UniProt P33681); test: flow cytometry, direct staining of 1A2 cells (negative for CD28 adhesion; presence of B7 not shown)
B7 antigen (human) [32] = target: B7 antigen (human) (UniProt P33681); test: flow cytometry, direct staining of HL60 cells (negative for CD28 adhesion; presence of B7 not shown)
B7 antigen (human) [33] = target: B7 antigen (human) (UniProt P33681); test: flow cytometry, direct staining of HSB2 cells (negative for CD28 adhesion; presence of B7 not shown)
B7 antigen (human) [34] = target: B7 antigen (human) (UniProt P33681); test: flow cytometry, direct staining of THP-1 cells (negative for CD28 adhesion; presence of B7 not shown)
B7 antigen (human) [35] = target: B7 antigen (human) (UniProt P33681); test: flow cytometry, direct staining of Namalwa cells (negative for CD28 adhesion; presence of B7 not shown)

[^3H]-T incorporation of PBL, B7Ig (immob.), +Anti-CD3, Exp. 1 (CD28 receptor (human) [1]): 174000 cpm
[^3H]-T incorporation of PBL, B7Ig (immob.), -Anti-CD3, Exp. 1 (CD28 receptor (human) [1]): 100 cpm
radioactivity bound without competitor [2]: 7800 cpm
IC50 [3]: 280 nM
Substance: B7Ig fusion protein (from UniProt P33681 35-215; P01857 99-330) (Fc fusion)

[^3H]-T incorporation of PBL, mAb 9.3 (immob.), +Anti-CD3, Exp. 1 (CD28 receptor (human) [1]): 137000 cpm
[^3H]-T incorporation of PBL, mAb 9.3 (immob.), -Anti-CD3, Exp. 1 (CD28 receptor (human) [1]): 100 cpm
[^3H]-T incorporation of PBL, mAb 9.3 (soln.), +Anti-CD3, Exp. 1 (CD28 receptor (human) [1]): 156000 cpm
[^3H]-T incorporation of PBL, mAb 9.3 (soln.), +Anti-CD3, Exp. 2 (CD28 receptor (human) [1]): 75800 cpm
[^3H]-T incorporation of PBL, mAb 9.3 (soln.), -Anti-CD3, Exp. 1 (CD28 receptor (human) [1]): 300 cpm
[^3H]-T incorporation of PBL, mAb 9.3 (soln.), -Anti-CD3, Exp. 2 (CD28 receptor (human) [1]): 400 cpm
adhesion of B7 transfected COS cells to CD28^+ CHO cells without EDTA, blocking by mAb 9.3 (CD28 receptor (human) [1]): 40%
adhesion of T51 cells to CD28^+ CHO cells, reduction by mAb 9.3 with EDTA (CD28 receptor (human) [1]): 93%
adhesion of T51 cells to CD28^+ CHO cells, reduction by mAb 9.3 without EDTA (CD28 receptor (human) [1]): 62%
half-maximal inhibition of CD28-mediated adhesion of PM lymphoblastoid cells to CD28^+ CHO cells (CD28 receptor (human) [1]): 10 nM
fold more effective as a competitor than B7Ig [4]: 65 fold
mean channel (linear fluorescence units) (linear fluorescence units) (CD28 receptor (human) [5]): 116
mean channel (linear fluorescence units) (linear fluorescence units) (CD28 receptor (human) [6]): 11.3
IC50 [7]: 4.3 nM
Substance: Monoclonal antibody (mAb) 9.3 (anti-CD28)

[^3H]-T incorporation of PHA blasts, stimulation B7^+ CHO, mAb 9.3 Fab (CD28 receptor (human) [1]): 132000 cpm
Substance: mAb 9.3 (Fab fragments)

[^3H]-T incorporation of PHA blasts, stimulation B7^+ CHO, mAb BB-1 (B7 antigen (human) [8]): 98300 cpm
adhesion of Jijoye cells to CD28^+ CHO cells, blocking by mAb (B7 antigen (human) [8]): 60%
SPECIFIC BINDING (mean fluorescence) (B7 antigen (human) [9]): 10.6 linear units
SPECIFIC BINDING (mean fluorescence) (B7 antigen (human) [10]): 13.4 linear units
SPECIFIC BINDING (mean fluorescence) (B7 antigen (human) [11]): 4.3 linear units
SPECIFIC BINDING (mean fluorescence) (B7 antigen (human) [12]): 3.6 linear units
SPECIFIC BINDING (mean fluorescence) (B7 antigen (human) [13]): 15 linear units
mean fluorescence, FITC-BB-1 +COLD (B7 antigen (human) [14]): 2.4 linear units
mean fluorescence, FITC-BB-1 +COLD (B7 antigen (human) [15]): 3 linear units
mean fluorescence, FITC-BB-1 +COLD (B7 antigen (human) [16]): 2.8 linear units
mean fluorescence, FITC-BB-1 +COLD (B7 antigen (human) [17]): 2.8 linear units
mean fluorescence, FITC-BB-1 +COLD (B7 antigen (human) [18]): 2.8 linear units
mean fluorescence, FITC-BB-1 -COLD (B7 antigen (human) [19]): 13 linear units
mean fluorescence, FITC-BB-1 -COLD (B7 antigen (human) [20]): 16.4 linear units
mean fluorescence, FITC-BB-1 -COLD (B7 antigen (human) [21]): 7.1 linear units
mean fluorescence, FITC-BB-1 -COLD (B7 antigen (human) [22]): 6.4 linear units
mean fluorescence, FITC-BB-1 -COLD (B7 antigen (human) [23]): 17.8 linear units
SPECIFIC BINDING (mean fluorescence) (B7 antigen (human) [24]): 1.6 linear units
IC50 [25]: 140 nM
mean fluorescence, FITC-BB-1 +COLD (B7 antigen (human) [26]): 4.3 linear units
mean fluorescence, FITC-BB-1 +COLD (B7 antigen (human) [27]): 1.9 linear units
mean fluorescence, FITC-BB-1 +COLD (B7 antigen (human) [28]): 3.1 linear units
mean fluorescence, FITC-BB-1 +COLD (B7 antigen (human) [29]): 2.3 linear units
mean fluorescence, FITC-BB-1 +COLD (B7 antigen (human) [30]): 3 linear units
mean fluorescence, FITC-BB-1 -COLD (B7 antigen (human) [31]): 4.5 linear units
mean fluorescence, FITC-BB-1 -COLD (B7 antigen (human) [32]): 3.1 linear units
mean fluorescence, FITC-BB-1 -COLD (B7 antigen (human) [33]): 2.3 linear units
mean fluorescence, FITC-BB-1 -COLD (B7 antigen (human) [34]): 3.1 linear units
mean fluorescence, FITC-BB-1 -COLD (B7 antigen (human) [35]): 3.8 linear units
Substance: mAb BB-1 (anti-B7) (antibody)
